Test results reported in patent USRE47150 (Bayer, dated 2018).

T1: mouse tissue factor pathway inhibitor (TFPI) (mouse, UniProt O54819 29-289, limits assumed)
T1 construct: bought; also called mTFPI; murine TFPI
T1 sequence (looked up): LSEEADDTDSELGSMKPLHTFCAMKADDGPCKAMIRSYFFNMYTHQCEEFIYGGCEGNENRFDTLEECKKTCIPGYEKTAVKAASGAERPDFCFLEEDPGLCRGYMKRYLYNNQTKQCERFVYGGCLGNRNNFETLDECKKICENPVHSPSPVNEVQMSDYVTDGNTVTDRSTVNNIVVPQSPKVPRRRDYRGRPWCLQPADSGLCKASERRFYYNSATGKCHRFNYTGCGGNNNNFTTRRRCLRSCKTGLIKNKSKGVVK

T2: human tissue factor pathway inhibitor (TFPI) (human, UniProt P10646 29-304, limits assumed)
T2 construct: bought; also called hTFPI; human TFPI
T2 sequence (looked up): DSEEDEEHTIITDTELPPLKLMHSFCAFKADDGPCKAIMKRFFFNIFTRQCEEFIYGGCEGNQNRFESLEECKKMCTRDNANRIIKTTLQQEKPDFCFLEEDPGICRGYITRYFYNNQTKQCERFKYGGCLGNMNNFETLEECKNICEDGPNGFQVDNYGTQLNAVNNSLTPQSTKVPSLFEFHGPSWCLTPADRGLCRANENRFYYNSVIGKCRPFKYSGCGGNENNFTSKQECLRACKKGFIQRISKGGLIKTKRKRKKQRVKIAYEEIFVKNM


What was measured:
[1] = molecular target: T1, mouse tissue factor pathway inhibitor …; experiment: competitive ELISA
[2] = molecular target: T2, human tissue factor pathway inhibitor …; experiment: competitive ELISA

| variant/HC_D62R [1] [ratio] | variant/HC_D62R [2] [ratio] | Binder |
| --- | --- | --- |
| 11.5 | 20.2 | 4B7 HC N32D+D62Q+H107M+Y112D/LC F31I+S32R+D33R+N35I+D97T (Fab, V domains shown) VH: QVQLQQSGPGLVKPSQTLSLTCAISGDSVSSDSAAWSWIRQSPGRGLEWLGIIYKRSKWYNQYAVSVKSRITINPDTSKNQFSLQLNSVTPEDTAVYYCARWHSDKMWGFDDWGQGTLVTVSS VL: DIVMTQSPLSLPVTPGEPASISCRSSQSLVIRRGITYLNWYLQKPGQSPQLLIYKGSNRASGVPDRFSGSGSGTDFTLKISRVEAEDVGVYYCQQYTSYPLTFGQGTKVEIKR |
| 16.4 | 22.2 | 4B7 HC N32D+D62Q+H107M+Y112D/LC N35I (Fab, V domains shown) VH: QVQLQQSGPGLVKPSQTLSLTCAISGDSVSSDSAAWSWIRQSPGRGLEWLGIIYKRSKWYNQYAVSVKSRITINPDTSKNQFSLQLNSVTPEDTAVYYCARWHSDKMWGFDDWGQGTLVTVSS VL: DIVMTQSPLSLPVTPGEPASISCRSSQSLVFSDGITYLNWYLQKPGQSPQLLIYKGSNRASGVPDRFSGSGSGTDFTLKISRVEAEDVGVYYCQQYDSYPLTFGQGTKVEIKR |
| 16.9 | 23.2 | 4B7 HC N32D+D62Q+H107M+Y112D/LC S32R+D33F (Fab, V domains shown) VH: QVQLQQSGPGLVKPSQTLSLTCAISGDSVSSDSAAWSWIRQSPGRGLEWLGIIYKRSKWYNQYAVSVKSRITINPDTSKNQFSLQLNSVTPEDTAVYYCARWHSDKMWGFDDWGQGTLVTVSS VL: DIVMTQSPLSLPVTPGEPASISCRSSQSLVFRFGNTYLNWYLQKPGQSPQLLIYKGSNRASGVPDRFSGSGSGTDFTLKISRVEAEDVGVYYCQQYDSYPLTFGQGTKVEIKR |
| 35.3 | 19.4 | 4B7 HC N32D+D62Q+H107M+Y112D/LC F31M+D33F+N35T+Y37F (Fab, V domains shown) VH: QVQLQQSGPGLVKPSQTLSLTCAISGDSVSSDSAAWSWIRQSPGRGLEWLGIIYKRSKWYNQYAVSVKSRITINPDTSKNQFSLQLNSVTPEDTAVYYCARWHSDKMWGFDDWGQGTLVTVSS VL: DIVMTQSPLSLPVTPGEPASISCRSSQSLVMSFGTTFLNWYLQKPGQSPQLLIYKGSNRASGVPDRFSGSGSGTDFTLKISRVEAEDVGVYYCQQYDSYPLTFGQGTKVEIKR |
| 18.8 | 23.7 | 4B7 HC N32D+D62Q+H107M+Y112D/LC D33R+N35T (Fab, V domains shown) VH: QVQLQQSGPGLVKPSQTLSLTCAISGDSVSSDSAAWSWIRQSPGRGLEWLGIIYKRSKWYNQYAVSVKSRITINPDTSKNQFSLQLNSVTPEDTAVYYCARWHSDKMWGFDDWGQGTLVTVSS VL: DIVMTQSPLSLPVTPGEPASISCRSSQSLVFSRGTTYLNWYLQKPGQSPQLLIYKGSNRASGVPDRFSGSGSGTDFTLKISRVEAEDVGVYYCQQYDSYPLTFGQGTKVEIKR |
| 12 | 19 | 4B7 HC N32D+D62Q+H107M+Y112D/LC F31M+S32R+D33F+N35I+D97T (Fab, V domains shown) VH: QVQLQQSGPGLVKPSQTLSLTCAISGDSVSSDSAAWSWIRQSPGRGLEWLGIIYKRSKWYNQYAVSVKSRITINPDTSKNQFSLQLNSVTPEDTAVYYCARWHSDKMWGFDDWGQGTLVTVSS VL: DIVMTQSPLSLPVTPGEPASISCRSSQSLVMRFGITYLNWYLQKPGQSPQLLIYKGSNRASGVPDRFSGSGSGTDFTLKISRVEAEDVGVYYCQQYTSYPLTFGQGTKVEIKR |

More lines, now with the values behind:

| Binder | variant/HC_D62R [1] [ratio] | variant/HC_D62R [2] [ratio] |
| --- | --- | --- |
| 4B7 HC D62Q+H107M+Y112D/LC D33F+N35I (Fab, V domains shown) VH: QVQLQQSGPGLVKPSQTLSLTCAISGDSVSSNSAAWSWIRQSPGRGLEWLGIIYKRSKWYNQYAVSVKSRITINPDTSKNQFSLQLNSVTPEDTAVYYCARWHSDKMWGFDDWGQGTLVTVSS VL: DIVMTQSPLSLPVTPGEPASISCRSSQSLVFSFGITYLNWYLQKPGQSPQLLIYKGSNRASGVPDRFSGSGSGTDFTLKISRVEAEDVGVYYCQQYDSYPLTFGQGTKVEIKR | 31.7 | 22.7 |
| 4B7 HC D62R+Y112D/LC S32R+D33F+N35I (Fab, V domains shown) VH: QVQLQQSGPGLVKPSQTLSLTCAISGDSVSSNSAAWSWIRQSPGRGLEWLGIIYKRSKWYNRYAVSVKSRITINPDTSKNQFSLQLNSVTPEDTAVYYCARWHSDKHWGFDDWGQGTLVTVSS VL: DIVMTQSPLSLPVTPGEPASISCRSSQSLVFRFGITYLNWYLQKPGQSPQLLIYKGSNRASGVPDRFSGSGSGTDFTLKISRVEAEDVGVYYCQQYDSYPLTFGQGTKVEIKR | 39.9 | 21.9 |
| 4B7 HC D62R+H107M+Y112D/LC F31I+D33R+N35I (Fab, V domains shown) VH: QVQLQQSGPGLVKPSQTLSLTCAISGDSVSSNSAAWSWIRQSPGRGLEWLGIIYKRSKWYNRYAVSVKSRITINPDTSKNQFSLQLNSVTPEDTAVYYCARWHSDKMWGFDDWGQGTLVTVSS VL: DIVMTQSPLSLPVTPGEPASISCRSSQSLVISRGITYLNWYLQKPGQSPQLLIYKGSNRASGVPDRFSGSGSGTDFTLKISRVEAEDVGVYYCQQYDSYPLTFGQGTKVEIKR | 35.4 | 22 |
| 4B7 HC D62S+H107M+Y112D/LC S32R+D33F+N35I (Fab, V domains shown) VH: QVQLQQSGPGLVKPSQTLSLTCAISGDSVSSNSAAWSWIRQSPGRGLEWLGIIYKRSKWYNSYAVSVKSRITINPDTSKNQFSLQLNSVTPEDTAVYYCARWHSDKMWGFDDWGQGTLVTVSS VL: DIVMTQSPLSLPVTPGEPASISCRSSQSLVFRFGITYLNWYLQKPGQSPQLLIYKGSNRASGVPDRFSGSGSGTDFTLKISRVEAEDVGVYYCQQYDSYPLTFGQGTKVEIKR | 31.7 | 18.2 |
| 4B7 HC D62R+H107M+Y112D/LC F31M+D33F+N35I (Fab, V domains shown) VH: QVQLQQSGPGLVKPSQTLSLTCAISGDSVSSNSAAWSWIRQSPGRGLEWLGIIYKRSKWYNRYAVSVKSRITINPDTSKNQFSLQLNSVTPEDTAVYYCARWHSDKMWGFDDWGQGTLVTVSS VL: DIVMTQSPLSLPVTPGEPASISCRSSQSLVMSFGITYLNWYLQKPGQSPQLLIYKGSNRASGVPDRFSGSGSGTDFTLKISRVEAEDVGVYYCQQYDSYPLTFGQGTKVEIKR | 47 | 30.9 |
| 4B7 HC D62R+H107M+Y112D/LC F31M+D33F (Fab, V domains shown) VH: QVQLQQSGPGLVKPSQTLSLTCAISGDSVSSNSAAWSWIRQSPGRGLEWLGIIYKRSKWYNRYAVSVKSRITINPDTSKNQFSLQLNSVTPEDTAVYYCARWHSDKMWGFDDWGQGTLVTVSS VL: DIVMTQSPLSLPVTPGEPASISCRSSQSLVMSFGNTYLNWYLQKPGQSPQLLIYKGSNRASGVPDRFSGSGSGTDFTLKISRVEAEDVGVYYCQQYDSYPLTFGQGTKVEIKR | 31.3 | 24.2 |
| 4B7 HC D62R+H107M+Y112D/LC N35T+D97T (Fab, V domains shown) VH: QVQLQQSGPGLVKPSQTLSLTCAISGDSVSSNSAAWSWIRQSPGRGLEWLGIIYKRSKWYNRYAVSVKSRITINPDTSKNQFSLQLNSVTPEDTAVYYCARWHSDKMWGFDDWGQGTLVTVSS VL: DIVMTQSPLSLPVTPGEPASISCRSSQSLVFSDGTTYLNWYLQKPGQSPQLLIYKGSNRASGVPDRFSGSGSGTDFTLKISRVEAEDVGVYYCQQYTSYPLTFGQGTKVEIKR | 19.4 | 20.1 |
| 4B7 HC D62R+H107M+Y112D/LC D33F+N35I (Fab, V domains shown) VH: QVQLQQSGPGLVKPSQTLSLTCAISGDSVSSNSAAWSWIRQSPGRGLEWLGIIYKRSKWYNRYAVSVKSRITINPDTSKNQFSLQLNSVTPEDTAVYYCARWHSDKMWGFDDWGQGTLVTVSS VL: DIVMTQSPLSLPVTPGEPASISCRSSQSLVFSFGITYLNWYLQKPGQSPQLLIYKGSNRASGVPDRFSGSGSGTDFTLKISRVEAEDVGVYYCQQYDSYPLTFGQGTKVEIKR | 36.6 | 20 |
| 4B7 HC D62Q+Y112D/LC S32R+D33F+N35I (Fab, V domains shown) VH: QVQLQQSGPGLVKPSQTLSLTCAISGDSVSSNSAAWSWIRQSPGRGLEWLGIIYKRSKWYNQYAVSVKSRITINPDTSKNQFSLQLNSVTPEDTAVYYCARWHSDKHWGFDDWGQGTLVTVSS VL: DIVMTQSPLSLPVTPGEPASISCRSSQSLVFRFGITYLNWYLQKPGQSPQLLIYKGSNRASGVPDRFSGSGSGTDFTLKISRVEAEDVGVYYCQQYDSYPLTFGQGTKVEIKR | 38.1 | 23.6 |
| 4B7 HC D62R+H107M+Y112D/LC F31I+S32R+D33F+N35I+D97T (Fab, V domains shown) VH: QVQLQQSGPGLVKPSQTLSLTCAISGDSVSSNSAAWSWIRQSPGRGLEWLGIIYKRSKWYNRYAVSVKSRITINPDTSKNQFSLQLNSVTPEDTAVYYCARWHSDKMWGFDDWGQGTLVTVSS VL: DIVMTQSPLSLPVTPGEPASISCRSSQSLVIRFGITYLNWYLQKPGQSPQLLIYKGSNRASGVPDRFSGSGSGTDFTLKISRVEAEDVGVYYCQQYTSYPLTFGQGTKVEIKR | 18.2 | 20.4 |
| 4B7 HC N32D+D62K+Y112D/LC S32R+D33F+N35I+D97T (Fab, V domains shown) VH: QVQLQQSGPGLVKPSQTLSLTCAISGDSVSSDSAAWSWIRQSPGRGLEWLGIIYKRSKWYNKYAVSVKSRITINPDTSKNQFSLQLNSVTPEDTAVYYCARWHSDKHWGFDDWGQGTLVTVSS VL: DIVMTQSPLSLPVTPGEPASISCRSSQSLVFRFGITYLNWYLQKPGQSPQLLIYKGSNRASGVPDRFSGSGSGTDFTLKISRVEAEDVGVYYCQQYTSYPLTFGQGTKVEIKR | 38.8 | 22.7 |
| 4B7 HC D62R+H107M+Y112D/LC S32R+D33F+N35I (Fab, V domains shown) VH: QVQLQQSGPGLVKPSQTLSLTCAISGDSVSSNSAAWSWIRQSPGRGLEWLGIIYKRSKWYNRYAVSVKSRITINPDTSKNQFSLQLNSVTPEDTAVYYCARWHSDKMWGFDDWGQGTLVTVSS VL: DIVMTQSPLSLPVTPGEPASISCRSSQSLVFRFGITYLNWYLQKPGQSPQLLIYKGSNRASGVPDRFSGSGSGTDFTLKISRVEAEDVGVYYCQQYDSYPLTFGQGTKVEIKR | 50.3 | 24.1 |
